Patent US20150299328A1 (ARMAGEN TECHNOLOGIES, published 2015)
Values belong to the binder of their own block, whether it stands above or below them.

What was measured:
[1] = molecular target: T1, HIR extracellular domain (ECD) (human, UniProt P06213 28-956, limits assumed); assay: ELISA, HIR ECD plated
T1 construct: extracellular domain; also called HIR ECD; IR ECD
Experimental: The extracellular domain (ECD) of the HIR was purified by lectin affinity chromatography from serum free medium conditioned by CHO cells that were permanently transfected with the HIR ECD. The HIR ECD was plated in ELISA wells to bind the chimeric HIRMAb without IDUA fused, and the CHO-derived HIRMAb-IDUA fusion protein. […] The binding constants shown in FIG. 18 were determined by non-linear regression analysis of the binding isotherms.

[2] = molecular target: T1, HIR extracellular domain (ECD); assay: ELISA, HIR ECD plated, biotinylated goat anti-human IgG detection
Experimental: The affinity of the fusion protein for the HIR extracellular domain (ECD) was determined with an ELISA. CHO cells permanently transfected with the HIR ECD were grown in serum free media (SFM), and the HIR ECD was purified with a wheat germ agglutinin affinity column, as previously described in Coloma et al. (2000) Pharm Res, 17:266-274. The HIR ECD was plated on Nunc-Maxisorb 96 well dishes and the binding of the HIR Ab, or the HIR Ab-IDUA fusion protein, to the HIR ECD was detected with a biotinylated goat anti-human IgG (H+L) secondary antibody, followed by avidin and biotinylated peroxidase (Vector Labs, Burlingame, Calif.). The concentration of either HIR Ab or HIR Ab-IDUA fusion protein that gave 50% maximal binding was determined with a non-linear regression analysis.

EC50 [1]: 750 pM | EC50 [2]: 610 pM
B1: chimeric HIR Ab (human-mouse chimeric antibody to the human insulin receptor) (antibody, human IgG1, kappa)
heavy: not shown
light: DIQMTQSPSSLSASLGERVSLTCRASQDIGGNLYWLQQGPDGTIKRLIYATSSLDSGVPKRFSGSRSGSDYSLTISSLESEDFVDYYCLQYSSSPWTFGGGTKMEIKRTVAAPSVFIFPPSDEQLKSGTASVVCLLNNFYPREAKVQWKVDNALQSGNSQESVTEQDSKDSTYSLSSTLTLSKADYEKHKVYACEVTHQGLSSPVTKSFNRGEC
notes: Human IgG1 heavy chain constant region and human kappa light chain constant region; also called chimeric HIRMAb; HIRMAb

EC50 [2]: 930 pM
B2: HIR Ab-IDUA fusion protein (COS cell derived; HIR Ab-HC-IDUA fusion/HIR Ab-LC antibody) (antibody, human IgG1, kappa)
heavy: not shown
light: B1 light
notes: Bivalent antibody-enzyme fusion; It was made by dual transfection of COS cells with pHIR Ab-LC and pCD-HC-IDUA; also called HIR Ab-IDUA fusion antibody
